Assay results reported in the RNAGym collection of RNA variant scans (doi:10.1073/pnas.2313332121).

B1: TPR t1 (parent)
chain: GACCAAUCUGCCCUCAGAGCUCGAGAACAUCUUCGGAUGCAGAGGAGGCAGGCUUCGGUGGCGCGAUAGCGCCAACGUCCUCAACCUCCAAUGCAUCCCACCACAUGAUGAUGCCUGAAGAGCCUUGGUUUUUUG

Variants of: B1
Assay: polymerase ribozyme fitness, log enrichment relative to wild type (log ratio); higher = more active; in vitro selection for triplet polymerase activity
In short: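 Mutant libraries were PCR-built and transcribed for each subunit of a heterodimeric triplet polymerase ribozyme and selected for one round in triplicate at −7 °C, frozen, before gel excision of extended constructs and streptavidin-bead capture. Input and output libraries were Illumina-sequenced, keeping genotypes with ≥10 input reads and ≥1 read per output. Fitness is a logarithmic ratio of genotype to wild-type enrichment, in base 2, using inverse-variance-weighted replicate averages.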

Point of comparison: C3U G17U C64U, “polymerase ribozyme fitness (log ratio)” value -3.03. Against it:
- C3U C11A G120C — higher, 0.399
- C3U C40G C115A — higher, -1.95
- A2C G57C G71A U92G G120A — lower, -6.04
- C3A U9C C11A C49G U109A U126G — lower, -6.11
- C3A G36C G63A U130C — higher, -2.1
- A2U A6G U92C A121C — higher, -0.755
- A2U C62U — within 0.2 log units, -2.96
- A2G C64U C89G U112A — higher, -1.2
- C3U C11A G47A C72A G110U — within 0.2 log units, -2.89
- C3U G17U G47A U96A U106A C115A U130G — higher, -2.25
- A2G U14C C70U — higher, -2.68
- A2G G57C U59G A100U U106C — higher, -0.973
- C3A G39A A68G G128U — lower, -4.5
- C3A C76G G93A C115G — lower, -5.76
- C3U C8A C73G G120C G135C — higher, 1.56
- A2G C11A C49G G71U C85A U92C — higher, -2.64
- A2U U131G — higher, -2.07
- C3A C79A G120U G128A — within 0.2 log units, -3.06
- A2U U21A C49U — lower, -4.09
- C3A U7C G113C — higher, -2.78
- A2U C4A A43G G47C A68G G113A C124U — lower, -6.42
- C3U A37U C40A G60U — higher, -1.23
- C3U A41C U125A U126C — lower, -3.37
- C3G G39A G51U G69U C79A U130G — within 0.2 log units, -3
- C3U G45A A105U — lower, -3.3
- C3U C8G G45U U54A C72U U87C U130A — higher, -1.62
- A2U U9C C12A G51U C53A U55A G61U U78C G127U — lower, -6.49
- C3U C11U U33A — lower, -4.58
- A2G A18G G19C A83C U92A C114A G128C — lower, -3.26
- C3A C62U G93C — within 0.2 log units, -2.92
- A2G G44C C62A C97U C115U G135A — lower, -5.32
- A2U A5C C62A G93C — lower, -5.08
- A2C G71A C115A C123U — higher, -2.71
- A2G C34A U55A C70G U112C — lower, -5.23
- C3A A111C G128U U129A — higher, -1.89
- C3U C11U C13G U116C — lower, -4.66
- C3A A5C C115A — higher, 1.15
- A2G G69A C89G G110U — lower, -6
- A2C G61A — higher, -1.72
- C3U C88A — higher, -1.53
- A2U C13U A41G A43U C49U U92C G93C C115U U131G U132A — lower, -4.38
- C3U G117A G120U — higher, -2.21
- A2G A50C A75G G113U — lower, -3.77
- C3U A90G — higher, -0.86
- A2G A46C — higher, -0.998
- C3A G52U C64U — higher, -2.19
- A2U C12A U55G G61A C102A C104U — lower, -4.56
- C3A C12U — higher, -0.986
- C3A C40A G47A G60A A75U C86U C97U C123A U132A — higher, -1.07
- C3U C13U C34U C62U C85U — lower, -5.63
- C3A G44U — lower, -3.37
- C3U G39C G44A G77U U78A A119G — higher, -1.19
- A2C G63U C124U — higher, -1.65
- A2C C49A U87A C88A — within 0.2 log units, -3.11
- C3G G48C C89U U132C — higher, -1.66
- C3A A5G C12A G63U A68G C115G G122A U130G — lower, -6.94
- C3A G48U — higher, -2.67
- C3G A46U — higher, -2.71
- C3U U9C C49A C70U C76A C115A — higher, -0.878
- C3U G69U A105G G117C — lower, -4.98
- A2U C11G C28U G61A — higher, -2.82
- C3U G120A — higher, 0.234
- C3U C8G G48U G93U — higher, -0.42
- A2G U78A G128A — higher, -2.62
- C3A G44A A46U C53G C115U — lower, -6.56
- A2G A91U — higher, -1.93
- A2C C70A U116C U126C U133A — lower, -5.29
- C3G C13U G36U G45A C72U U125A G127U U131C — within 0.2 log units, -2.84
- C3U A29G C53U G57C C86G — lower, -4.64
- C3U G45U G60U A91G C123U — higher, -2.3
- C3A C56A G71A G127U — lower, -3.57
- C3G G63C A68C A111U U112G G113A — lower, -5.32
- A2G U9G U21C G128A — lower, -4.35
- C3U C12A C79G — within 0.2 log units, -2.97
- A2G G35C — lower, -3.63
- C3U U7C C86A A121G — higher, 2.02
- A2U A37C — within 0.2 log units, -3.02
- C3A C40G — higher, -2.2
- C3G C115A — within 0.2 log units, -2.96
- C3A G10A A75G C86G C98U G122A — higher, -2.58
- C3U C102U G117U — lower, -4.61
- A2C U9G C20A G71A A121U — lower, -3.49
- A2G C12U A75U A111G G113A — higher, -1.23
- A2U C56A C64U G120C — lower, -3.86
- C3G U9G A43G G61A C114A U131A — within 0.2 log units, -3
- C3A A105G — lower, -4.78
- A2C C40U — higher, -2.06
- C3A G71C C79G A119G C123A — higher, -1.16
- A2G C13G C123G — higher, 1.11
- A2C C73U — higher, -1.65
- A2C C101A U106A C115U A119G — higher, 0.154
- A2U C20U — lower, -3.71
- C3U C12G G71U — higher, -0.231
- C3G G71C A90U A95U U112A — lower, -3.23
- A2G C4G C8G G47U U54C — within 0.2 log units, -3.05
- A2U U32G G60U G69A U92A C114A U116A C124G — lower, -6.22
- A2U A5C C13U G48A G69A — lower, -5.8
- C3U G52A C62U A121U — higher, 1.52
- C3A C13U C34A G58C G135U — lower, -4.09
- C3U C8A A16U U33A G44A G120C — lower, -6.36
- C3U G110U — higher, -1.54
- C3A C12G C56G C123U — higher, -0.749
- C3G U81C A111C G128A U133G — lower, -4.61
- A2C C73U C76G U112G — higher, -1.38
- C3A G10U G69U C72U C101U — higher, -1.82
- C3U C8A C11A U21A C124G — higher, 1.81
- C3G A41C — lower, -3.54
- C3G G10C C34G G42U G69U C82G C102A U109A — lower, -5.83
- C3U C20A G57A G60U G117A — lower, -4.91
- C3A C8A C40G G61U A100C — within 0.2 log units, -2.95
- A2G C3G C31G A43U G60U C94U C114G — lower, -7.19
- A2G A5G U7G U21G A43C G69U C88A C101U U129A — lower, -3.72
- C3G U96C G113U — lower, -6.42
- A2G A5C G60A A74U C86U G135U — higher, -1.91
- A2U C11U U21A — higher, -1.96
- C3U C28A A41G C56U G120C — lower, -5.25
- A2U C12A — lower, -3.25
- A2U C12G — higher, -1.36
- A2G C4G G47A G48A C123A — within 0.2 log units, -3.22
- A2G C28U C70U G110U — within 0.2 log units, -3.19
- A2U U9G — higher, -1.32
- C3U C72U C98A — lower, -5.34
- A2G C40U U78A C86U G117A — lower, -3.78
- C3A C12U U54A G69U G77C — lower, -3.81
- A2U G63A C86A — lower, -4.44
- C3U G63A — higher, -1.72
- C3U G48A A68G — lower, -3.84
- C3U C11U — higher, -0.785
- C3G C88G U112G — higher, -2.52
- A2C G61A C82G — higher, -2.65
- C3U A29U — higher, -1.77
- A2C G63A — higher, -2.37
- A2G A18C C115A C123U — higher, -1.44
- C3U A6U G57A G120C — higher, 0.153
- C3G C86A — within 0.2 log units, -3.1
- C3U G17C G117U — lower, -6.24
- C3A G57C G71U A90U C114A U132C — within 0.2 log units, -2.98
- A2U C104A C124U U130A — higher, -2.07
- A2U G63A A84U C86U — lower, -3.92
- A2U C72G C101G C124A — higher, -2.28
- A2U G77C U116A C124A U130C — higher, -0.208
- C3G C34G C76G A91C U109G — lower, -6.42
- A2C G63U U129A — higher, -2.77
- C3A G23C C40A A84C G110C — lower, -5.53
- C3G C8G C73U C101G G120U — higher, -0.772
- C3A G61U C115A — higher, -1.78
- A2U A37U U54A G69U U78G A105G — lower, -3.36
- A2U A83G — lower, -3.47
- C3U C12G C85U — higher, -1.47
- A2G C62A C104U — higher, -0.429
- A2G A37C A111G — higher, -1.49
- A2U C49A — within 0.2 log units, -2.86
- A2U A18G U32C G93U C124G U133G — within 0.2 log units, -2.99
- C3G C11A C12U G58C C62U — lower, -4.45
- A2C G71U G93A U109A G120C — lower, -6.66
- C3U G39C G44A G63A G77U U78A A119G — within 0.2 log units, -2.88
- C3A A41U C70A A91C U112G U125G G127U — lower, -4.59
- A2U G60A C79U C80A A121G — lower, -5.43
- A2G C8G A121U U129G — higher, 0.138
- A2G U32C C40G C49A — higher, -1.76
- A2U C13A — lower, -3.76
- A2C G128U — higher, -2.55
- A2U G36U A41U U54G — lower, -6.42
- A2U C72A — higher, -2.16
- C3U A16U — higher, -2.53
- A2C C13G G93U G120U — higher, -2.23
